Columns and labels:
[1] = target: NPM1 (nucleophosmin, B23) (UniProt P06748); assay: anti-FLAG IP of transduced peptide, NPM1 blot; details: reference: TAT-ETD-FLAG WT; sites S641,S643
[2] = target: T1, GST‐NPM1 B23.1 (UniProt P06748 1-294); assay: pull-down; GST-NPM1 forms immobilised on GSH-agarose as baits, bacterially expressed and purified HIF-1α(348–826)SE or TAT-ETD-SE-FLAG peptide as prey; immunoblot with anti-HIF-1α or anti-Flag; details: both partners purified
T1 construct: NPM1 isoform B23.1, the most abundant form, with the C-terminal aromatic stretch; also called GST‐B23.1; B23.1 form of recombinant NPM1; source: E. coli BL21 (RIL), purified (GSH‐agarose)
T1 sequence (P06748 whole entry, canonical isoform): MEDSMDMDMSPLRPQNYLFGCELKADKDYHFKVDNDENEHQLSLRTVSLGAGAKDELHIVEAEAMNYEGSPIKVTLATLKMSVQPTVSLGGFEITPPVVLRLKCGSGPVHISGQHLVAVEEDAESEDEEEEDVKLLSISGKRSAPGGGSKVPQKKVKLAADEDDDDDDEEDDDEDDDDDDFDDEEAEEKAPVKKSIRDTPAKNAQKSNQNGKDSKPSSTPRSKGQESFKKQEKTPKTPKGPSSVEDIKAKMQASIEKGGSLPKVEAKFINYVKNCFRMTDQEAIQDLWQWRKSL

## HIF‐1α ETD, 616-658 (from UniProt Q16665) TAT-ETD-SA-FLAG
[1]
  binding against the reference: lost

B1: TAT‐ETD(SE)‐FLAG peptide (peptide, UniProt Q16665 616-658, looked up)
chain: TTTATTDELKTVTKDRMEDIKILIAEPSPTHIHKETTSATSSP
notes: HIF-1α ERK targeted domain (ETD), residues 616–658, Ser641 to Glu; source: E. coli, purified
[2]
  binding result: binds

— PMC8637566, “ERK signaling controls productive HIF‐1 binding to chromatin and cancer cell adaptation to hypoxia through HIF‐1α interaction with NPM1” (Molecular Oncology, 2021)
